From patent US7541183B2, “Growth and differentiation of adult muscle stem cells with activators or inhibitors of Wnt signaling” (Ottawa Health Research Institute, priority 2003, dated 2009) come the findings set out here.

For series [1], the system named is CD45+:Sca1+ muscle cells. In kind it is cell-based.
Protocol: Mononuclear cells were washed twice with DMEM supplemented with 5% FBS, and suspended at a concentration of 2−3×10^6 cells/ml. […] Primary antibodies were diluted at 1:200, and Streptavidin Tri-Color Conjugate was diluted 1:1000. After two washes with DMEM at 4° C., cells were separated on a MoFlo cytometer (DakoCytomation), equipped with 3 lasers. Sort gates were strictly defined based on isotype control stained cells and single antibody staining. Dead cells and debris were excluded by gating on forward and side scatter profiles. Sorting was performed using single cell mode to achieve the highest possible purity. The purity of sorted populations was routinely >98%.
Primary myoblasts were isolated from hind limb muscle of 3-week old Balb/c mice, and maintained in HAM's F-10 medium (Invitrogen) supplemented with 20% FBS, and 2.5 ng/ml bFGF (Invitrogen).
For co-culture experiments, primary myoblasts or Wnt-expressing cells were mixed with purified CD45^+:Sca1^+ cells at a ratio of 1:1, and seeded on Collagen-coated 2-well Permanox Chamber Slides (Lab-Tek). The density was 2×10^4 cells/chamber for co-culture in growth conditions, and 4×10^4 cells/chamber for differentiation experiments. […] Fluoroscein or Rhodamine conjugated antibodies (Chemicon) were used for secondary detection. Cover slides were mounted and analyzed using a Zeiss Axioscop fluorescent microscope.
The test system of series [2] is Myf5nLacZ+ satellite cells. The series is described as follows: Impact of cardiotoxin injection on myogenic progenitors in injured muscle. The series is classed as in vivo, Myf5nLacZ mice. The note with it: 18 hours post-ctx injection. As for the experimental part:
For direct analysis of sorted cell populations, cells were washed and suspended in phosphate-buffered saline (PBS), and cytospun onto silanized slides (DAKO). X-gal staining was performed as described previously (Kablar, 1997, Development 124, 4729-4738).
5 to 8 week-old mice were anaesthetised with Halothane gas. 25 μl of 10 μM cardiotoxin (Latoxan) was injected directly into the TA muscle, using a 29 G 1/2 insulin syringe. For cell proliferation assays, 0.3 mg/kg of 5-bromo-deoxyuridine (BrdU, Sigma) was injected intraperitoneally 90 minutes prior to sacrificing animals. Cells that had incorporated BrdU were detected by flow cytometry using a FITC conjugated anti-BrdU antibody (ED Pharmingen). For sFRP experiments, 100 ng of recombinant sFRP 2 and 3 (R&D Systems) were injected into regenerating TA muscle. Control animals received injections of equal volumes of PBS. For analysis of total TA cell populations, 1×10^4 mononuclear cells were plated on collagen-coated chamber slides overnight and then stained with anti-Desmin antibody (DAKO) at 1:200. Donkey anti-mouse FITC (Chemicon) at 1:500 was used for secondary detection.

For “Shh: recombinant Sonic Hedgehog (Shh-N, R&D Systems)”, in series [1] (100 ng/ml Shh), the “increase in CD45+:Sca1+ cell survival” value was 3-4 fold. The “myogenic differentiation efficiency of CD45+:Sca1+ cells” value in series [1] (recombinant Shh at 10 or 100 ng/ml, cells alone or in co-culture with myoblasts) is given as “did not influence”.

As to cardiotoxin, the results for the “reduction in the number of Myf5nLacZ+ cells relative to uninjured muscle” value in series [2] and in series [2] (listed as ctx) were ~30 fold and “approximately 30 fold”, respectively. Further, the “number of Myf5nLacZ+ cells” value in series [2] (uninjured muscle 4.1×10^4±1.6×10^4) was 1.18×10^3±1×10^3 cells/g tissue.
